Laboratory results as given in PMC7394266.

Key:
[1] = target: PD-L1 IgV-TIM-3 chimera with K124S in the PD-L1 IgV domain, on transfected COS cells (human) (UniProt Q9NZQ7); assay: flow cytometry on cells
[2] = target: PD-L1 IgV-TIM-3 chimera with M115A in the PD-L1 IgV domain, on transfected COS cells (human) (UniProt Q9NZQ7); assay: flow cytometry on cells

percent decrease in binding against the unmutated chimera [1]: 80%
percent decrease in binding against the unmutated chimera [2]: 80%
Substance: human B7–1-hIgG1 recombinant fusion protein (from UniProt P33681 35-242) (Fc fusion)
